Experiments:
FGFR1 = FGFR1 (UniProt P11362); experiment: phosphorylation enrichment, bacterial display (enrichment ratio); higher = better substrate or ligand; peptides without Tyr show the background
c-Abl (mouse) = experiment: as above
FGFR3 = FGFR3 (UniProt P22607); experiment: as above
EPHB2 = EPHB2 (UniProt P29323); experiment: as above
Fer (mouse) = experiment: as above
c-Src = experiment: as above
AncSZ = experiment: as above
EPHB1 = EPHB1 (UniProt P54762); experiment: as above
Hck = Hck (UniProt P08631); experiment: as above
MERTK = MERTK (UniProt Q12866); experiment: as above
Fyn = Fyn (UniProt P06241); experiment: as above
Sequence of Fyn (P06241 whole entry, looked up): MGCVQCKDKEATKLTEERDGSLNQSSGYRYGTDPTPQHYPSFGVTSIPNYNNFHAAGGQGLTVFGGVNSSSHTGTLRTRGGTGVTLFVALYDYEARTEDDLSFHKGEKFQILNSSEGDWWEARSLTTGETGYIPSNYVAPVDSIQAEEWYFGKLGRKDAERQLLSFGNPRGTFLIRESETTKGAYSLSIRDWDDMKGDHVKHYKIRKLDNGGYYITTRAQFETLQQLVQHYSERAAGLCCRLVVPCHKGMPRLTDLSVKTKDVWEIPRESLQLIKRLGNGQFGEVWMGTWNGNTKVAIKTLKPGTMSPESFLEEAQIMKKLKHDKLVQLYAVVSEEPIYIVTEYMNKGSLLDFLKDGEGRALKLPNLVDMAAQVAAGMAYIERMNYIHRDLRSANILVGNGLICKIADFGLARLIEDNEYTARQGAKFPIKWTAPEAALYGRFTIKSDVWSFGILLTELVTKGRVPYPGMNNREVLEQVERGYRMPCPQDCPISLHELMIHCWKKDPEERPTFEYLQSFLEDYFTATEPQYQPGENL

Fes = Fes (UniProt P07332); experiment: as above
Sequence of Fes (P07332 whole entry, looked up): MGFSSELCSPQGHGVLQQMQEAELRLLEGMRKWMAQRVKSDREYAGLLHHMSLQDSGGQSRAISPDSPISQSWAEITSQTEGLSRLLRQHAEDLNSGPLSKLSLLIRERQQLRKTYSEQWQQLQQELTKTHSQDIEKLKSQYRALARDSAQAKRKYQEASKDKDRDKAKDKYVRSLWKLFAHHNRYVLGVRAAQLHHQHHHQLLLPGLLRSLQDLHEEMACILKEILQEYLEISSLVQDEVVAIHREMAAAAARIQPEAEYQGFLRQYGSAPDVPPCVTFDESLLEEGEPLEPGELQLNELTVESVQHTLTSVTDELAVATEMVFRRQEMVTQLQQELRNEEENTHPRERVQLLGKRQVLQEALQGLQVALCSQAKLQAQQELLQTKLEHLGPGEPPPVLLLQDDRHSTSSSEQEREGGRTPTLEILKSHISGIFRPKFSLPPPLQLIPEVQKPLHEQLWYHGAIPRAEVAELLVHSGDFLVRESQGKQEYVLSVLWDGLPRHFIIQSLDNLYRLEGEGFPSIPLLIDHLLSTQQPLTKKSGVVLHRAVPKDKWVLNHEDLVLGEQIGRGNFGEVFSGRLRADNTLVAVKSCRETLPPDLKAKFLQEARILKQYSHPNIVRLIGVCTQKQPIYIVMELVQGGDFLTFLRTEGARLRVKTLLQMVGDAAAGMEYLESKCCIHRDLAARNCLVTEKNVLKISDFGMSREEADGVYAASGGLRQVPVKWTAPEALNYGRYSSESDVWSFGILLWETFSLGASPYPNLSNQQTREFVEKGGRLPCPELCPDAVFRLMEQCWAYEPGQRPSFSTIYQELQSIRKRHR

Jak2 = Jak2 (UniProt O60674); experiment: as above
Sequence of Jak2 (O60674 whole entry, looked up): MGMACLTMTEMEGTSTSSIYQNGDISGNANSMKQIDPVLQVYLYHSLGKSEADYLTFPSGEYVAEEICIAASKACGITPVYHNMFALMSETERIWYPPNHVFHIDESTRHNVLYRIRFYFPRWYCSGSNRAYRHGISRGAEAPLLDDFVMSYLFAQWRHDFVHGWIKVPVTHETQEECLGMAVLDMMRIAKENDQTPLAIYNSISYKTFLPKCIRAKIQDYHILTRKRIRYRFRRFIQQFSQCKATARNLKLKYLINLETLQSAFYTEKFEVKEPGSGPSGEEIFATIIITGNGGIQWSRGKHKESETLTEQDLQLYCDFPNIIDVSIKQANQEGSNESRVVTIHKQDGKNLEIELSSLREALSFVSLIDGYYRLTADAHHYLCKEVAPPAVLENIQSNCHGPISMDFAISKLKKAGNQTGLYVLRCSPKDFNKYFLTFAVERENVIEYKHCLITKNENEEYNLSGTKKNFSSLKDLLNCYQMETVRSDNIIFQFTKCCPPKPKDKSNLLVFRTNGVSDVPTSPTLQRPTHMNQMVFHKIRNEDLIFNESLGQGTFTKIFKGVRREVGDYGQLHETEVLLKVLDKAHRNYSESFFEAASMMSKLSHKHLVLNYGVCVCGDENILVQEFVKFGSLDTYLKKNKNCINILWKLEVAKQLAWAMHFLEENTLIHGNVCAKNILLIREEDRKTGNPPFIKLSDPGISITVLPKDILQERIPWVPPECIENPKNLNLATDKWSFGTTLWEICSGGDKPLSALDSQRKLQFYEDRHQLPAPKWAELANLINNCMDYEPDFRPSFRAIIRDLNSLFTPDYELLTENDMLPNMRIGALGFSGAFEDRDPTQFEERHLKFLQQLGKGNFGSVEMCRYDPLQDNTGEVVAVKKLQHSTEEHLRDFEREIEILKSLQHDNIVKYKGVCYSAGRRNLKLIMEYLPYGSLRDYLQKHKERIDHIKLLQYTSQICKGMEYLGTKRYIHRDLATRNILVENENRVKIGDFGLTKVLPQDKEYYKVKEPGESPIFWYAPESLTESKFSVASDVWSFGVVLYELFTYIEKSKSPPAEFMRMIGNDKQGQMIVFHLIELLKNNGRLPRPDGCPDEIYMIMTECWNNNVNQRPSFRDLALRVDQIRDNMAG

SHP2-C SH2 = experiment: SH2 binding enrichment of the phosphorylated peptide, bacterial display (enrichment ratio); higher = better substrate or ligand; peptides without Tyr show the background
Grb2 SH2 = Grb2 SH2 (UniProt P62993); experiment: as above
Sequence of Grb2 SH2 (P62993 whole entry, looked up): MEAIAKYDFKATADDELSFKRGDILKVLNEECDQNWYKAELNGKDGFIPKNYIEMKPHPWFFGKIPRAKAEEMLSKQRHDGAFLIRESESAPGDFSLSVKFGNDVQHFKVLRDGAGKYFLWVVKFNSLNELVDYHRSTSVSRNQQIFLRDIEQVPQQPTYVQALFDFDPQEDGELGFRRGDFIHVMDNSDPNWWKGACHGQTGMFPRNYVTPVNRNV

c-Src SH2 = experiment: as above
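Throughout, for SH2 binding enrichment of the phosphorylated peptide, bacterial display: peptide library displayed on the E. coli surface as eCPX fusions, selected cells deep-sequenced, score is each peptide's frequency after selection divided by its frequency in the input.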
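Throughout, for phosphorylation enrichment, bacterial display: 11-residue human phosphosite peptides and single-mutation variants displayed on the E. coli surface, counted by deep sequencing, each peptide's frequency after selection divided by its frequency in the unselected input library; frequency after pTyr selection over input frequency; kinase dosed for 20-30% of maximal phosphorylation in three min.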

Sequence of EPHB1 (P54762 whole entry, looked up): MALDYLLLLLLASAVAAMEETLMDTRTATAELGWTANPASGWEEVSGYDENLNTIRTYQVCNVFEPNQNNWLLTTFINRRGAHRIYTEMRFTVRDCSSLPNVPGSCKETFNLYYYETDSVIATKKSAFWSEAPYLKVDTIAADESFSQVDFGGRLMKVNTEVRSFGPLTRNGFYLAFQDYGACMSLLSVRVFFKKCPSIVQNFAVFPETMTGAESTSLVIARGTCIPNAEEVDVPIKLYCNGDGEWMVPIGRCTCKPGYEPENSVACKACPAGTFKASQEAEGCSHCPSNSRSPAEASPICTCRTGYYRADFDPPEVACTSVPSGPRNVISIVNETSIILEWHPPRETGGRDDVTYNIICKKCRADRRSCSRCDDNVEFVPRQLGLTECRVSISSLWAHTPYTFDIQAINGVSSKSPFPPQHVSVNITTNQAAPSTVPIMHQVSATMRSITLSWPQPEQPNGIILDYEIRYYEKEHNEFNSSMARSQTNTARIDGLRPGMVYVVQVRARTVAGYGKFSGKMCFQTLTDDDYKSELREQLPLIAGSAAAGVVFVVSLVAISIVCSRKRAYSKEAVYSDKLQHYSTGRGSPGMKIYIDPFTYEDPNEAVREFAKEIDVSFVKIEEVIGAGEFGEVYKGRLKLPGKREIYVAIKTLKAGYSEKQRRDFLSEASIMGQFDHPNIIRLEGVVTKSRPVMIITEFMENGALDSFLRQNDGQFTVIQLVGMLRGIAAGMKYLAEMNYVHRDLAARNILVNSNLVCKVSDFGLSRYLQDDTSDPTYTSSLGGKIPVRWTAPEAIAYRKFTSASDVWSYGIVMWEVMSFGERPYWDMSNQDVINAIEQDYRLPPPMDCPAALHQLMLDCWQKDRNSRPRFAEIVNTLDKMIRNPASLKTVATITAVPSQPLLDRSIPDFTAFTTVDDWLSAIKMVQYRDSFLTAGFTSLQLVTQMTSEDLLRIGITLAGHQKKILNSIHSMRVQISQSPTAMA
Sequence of EPHB2 (P29323 whole entry, looked up): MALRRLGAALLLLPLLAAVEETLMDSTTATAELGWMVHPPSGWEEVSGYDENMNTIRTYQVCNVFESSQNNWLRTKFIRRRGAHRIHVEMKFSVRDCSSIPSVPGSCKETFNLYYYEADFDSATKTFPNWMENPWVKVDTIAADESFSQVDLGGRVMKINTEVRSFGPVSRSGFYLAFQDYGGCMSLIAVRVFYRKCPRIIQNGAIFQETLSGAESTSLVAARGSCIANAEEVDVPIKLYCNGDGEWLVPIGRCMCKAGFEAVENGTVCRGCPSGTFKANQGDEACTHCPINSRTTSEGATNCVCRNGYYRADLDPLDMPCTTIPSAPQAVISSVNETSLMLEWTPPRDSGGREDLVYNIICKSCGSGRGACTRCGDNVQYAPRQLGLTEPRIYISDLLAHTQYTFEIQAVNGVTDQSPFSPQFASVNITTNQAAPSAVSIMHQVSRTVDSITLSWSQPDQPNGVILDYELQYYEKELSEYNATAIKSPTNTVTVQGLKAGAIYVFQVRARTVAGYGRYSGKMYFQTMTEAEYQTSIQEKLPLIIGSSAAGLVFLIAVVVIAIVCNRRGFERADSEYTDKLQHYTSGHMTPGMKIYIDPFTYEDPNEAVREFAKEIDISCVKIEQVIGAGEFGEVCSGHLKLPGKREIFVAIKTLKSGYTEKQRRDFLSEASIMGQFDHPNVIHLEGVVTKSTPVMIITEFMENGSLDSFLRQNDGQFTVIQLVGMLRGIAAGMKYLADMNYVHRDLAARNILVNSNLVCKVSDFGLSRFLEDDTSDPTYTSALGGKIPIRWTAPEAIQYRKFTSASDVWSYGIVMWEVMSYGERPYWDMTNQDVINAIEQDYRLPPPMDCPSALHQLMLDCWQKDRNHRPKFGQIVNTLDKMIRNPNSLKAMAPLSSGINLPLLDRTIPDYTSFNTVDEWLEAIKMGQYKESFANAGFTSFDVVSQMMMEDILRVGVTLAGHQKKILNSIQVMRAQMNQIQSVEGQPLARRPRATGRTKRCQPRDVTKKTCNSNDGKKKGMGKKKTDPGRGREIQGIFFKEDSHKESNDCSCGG

Sequence	phosphorylation enrichment (FGFR1)	phosphorylation enrichment (c-Abl (mouse))	phosphorylation enrichment (FGFR3)	phosphorylation enrichment (EPHB2)	phosphorylation enrichment (Fer (mouse))	phosphorylation enrichment (c-Src)	phosphorylation enrichment (AncSZ)	phosphorylation enrichment (EPHB1)	phosphorylation enrichment (Hck)	phosphorylation enrichment (MERTK)	phosphorylation enrichment (Fyn)	phosphorylation enrichment (Fes)	phosphorylation enrichment (Jak2)	SH2 binding enrichment (SHP2-C SH2)	SH2 binding enrichment (Grb2 SH2)	SH2 binding enrichment (c-Src SH2)
REVVNYVQKRS [RMI1_Y450_N455S]	0.65	0.519	0.835	0.35	0.525	0.564	0.981	0.459	0.484	0.68	0.581	1.01	0.468	0.511	0.826	0.515
GMIQAYSSSQR [DES_Y5_S2I]	0.384	0.42	0.389	0.334	0.319	0.37	0.485	0.401	0.412	0.357	0.346	0.509	0.442	0.712	0.872	0.759
TYQYKYPEGSS [TGM4_Y440_E437Q]	0.425	0.691	0.63	0.56	0.509	0.494	0.85	0.548	0.455	0.429	0.567	0.905	0.743	0.586	0.834	0.631
QMVGMYAFSFM [AVPR2_Y124_S126F_YF]	0.846	0.912	1.63	3.08	3.54	1.28	1.5	1.95	1.06	5.8	1.16	1.65	1.15	0.817	0.654	0.353
QEMMEYRRQIQ [DES_Y324_H326R]	0.424	0.428	0.607	0.601	0.644	0.563	0.878	0.523	0.355	0.455	0.491	0.92	1.18	0.734	0.737	0.401
RESYKYLPSSL [CXXC1_Y218_F219L]	1.21	1.25	0.821	0.616	0.546	0.993	1.09	0.571	0.762	0.859	0.59	1.17	1.11	0.791	1.1	0.582
RLSELYLRRNR [CFAP410_Y68]	0.703	1.1	0.875	0.807	0.57	0.931	1.3	0.94	0.827	1.04	0.878	1.14	0.934	0.585	0.736	0.344
MENFIYESMQF [CYP19A1_Y361_R365Q_YF]	0.888	4.06	0.759	5.77	16.1	7.14	1.81	8.07	7.84	6.46	9.33	6.34	1.04	0.691	0.679	0.448
